This series deals with T1, second subunit of the Jack Bean (Canavalia ensiformis) β-hexosaminidase.
T1 chain: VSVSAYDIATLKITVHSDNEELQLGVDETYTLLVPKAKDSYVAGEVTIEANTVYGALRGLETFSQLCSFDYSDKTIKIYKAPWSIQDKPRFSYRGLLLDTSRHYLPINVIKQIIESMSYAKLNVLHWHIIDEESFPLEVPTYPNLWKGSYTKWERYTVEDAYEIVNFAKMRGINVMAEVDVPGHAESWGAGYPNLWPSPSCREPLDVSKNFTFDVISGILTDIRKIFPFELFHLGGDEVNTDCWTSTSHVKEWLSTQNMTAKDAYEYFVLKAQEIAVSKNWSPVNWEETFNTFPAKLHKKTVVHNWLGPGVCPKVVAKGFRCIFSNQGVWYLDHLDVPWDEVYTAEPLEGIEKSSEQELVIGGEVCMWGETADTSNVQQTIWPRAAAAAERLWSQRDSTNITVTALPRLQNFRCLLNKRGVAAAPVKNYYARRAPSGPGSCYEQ

B1: first subunit of the Jack Bean (Canavalia ensiformis) β-hexosaminidase (protein)
chain: SIIEPTESLTYLWPLPADFTSGDETLSVDPALTLSVAGNGGGSSILRDAFDRYRGIIFKHSSVGFS
modifications: not fully specified
For B1, the “β-hexosaminidase (b-Hex) activity” value is reported as “Dissociation of the two chains led to a complete loss of activity”.

For the origin of these results see patent publication US20240110168.
